In PMC7400510, “Molecular basis of the lipid-induced MucA-MucB dissociation in Pseudomonas aeruginosa” (Communications Biology, 2020):

Assays:
MucB (pET22b-MucB-6His) [1] = molecular target: T1, MucB (pET22b-MucB-6His) (P. aeruginosa, UniProt P38108 22-316); assay: ITC
T1 chain: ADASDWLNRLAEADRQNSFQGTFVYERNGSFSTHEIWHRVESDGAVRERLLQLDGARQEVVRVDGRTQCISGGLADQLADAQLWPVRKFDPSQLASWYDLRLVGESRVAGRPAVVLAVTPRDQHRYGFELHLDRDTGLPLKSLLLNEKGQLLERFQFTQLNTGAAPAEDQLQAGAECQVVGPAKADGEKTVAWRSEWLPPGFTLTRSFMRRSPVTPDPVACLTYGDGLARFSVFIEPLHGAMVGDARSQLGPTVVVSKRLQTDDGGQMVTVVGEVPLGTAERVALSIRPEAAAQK

MucB (pET22b-MucB-6His) [2] = molecular target: T2, MucB (pET22b-MucB-6His) (P. aeruginosa, UniProt P38108 22-316); assay: ITC; MucB (20 µM) in the sample cell titrated with MucA^peri (200 µM), 19 injections; 25 mM Tris–HCl (pH 7.5), 150 mM NaCl, 25 °C; conditions: both partners purified
T2 construct: source: E. coli BL21 (DE3), purified (Ni–NTA, Superdex-75)
T2 sequence: T1 chain

B1: periplasmic region of MucA (MucA^peri: residues 106–194), with His-tag (domain or fragment)
chain: YNQNDALPQMAQQGTTPQIALPQVKGPAVLAGYSEEQGAPQVITNSSSSDTRWHEQRLPIYLRQHVQQSAVSGTESALPYARAASLENR
notes: also called periplasmic domain of MucA; source: E. coli BL21 (DE3), purified (Ni–NTA, Superdex-75); not shown: His6, C-terminal, kept
How did the Ka (MucB (pET22b-MucB-6His) [1]) turn out when B1 was run?
The Ka was 633000 M⁻¹.

What about the Kd (MucB (pET22b-MucB-6His) [2]) of the same binder?
Its Kd is 1500 nM.
